From PMC4232355 come the findings set out here.

The test addresses recombinant integrin αvβ3 (UniProt P06756). The test is described as follows: ELISA; integrin competitive binding assay: wells coated with 0.05 µg/well recombinant integrin αvβ3; 5 nM biotinylated-GRGDS with or without various peptides (20 nM) or serially diluted cyclic-(GRGDSP), 3 hr at room temperature, binding buffer with 1 mM MnCl2; bound biotinylated-GRGDS detected with streptavidin-HRP polymer. A general note: In an ELISA, binding on a coated surface is turned into a signal by an enzyme label.

As for SRGDASYTSDESSDDDNDSDSH [N-opened RGD], the inhibitory activity of 20 nM peptide, as the equal concentration of cyclic-(GRGDSP) worked out at 3.3 nM and the inhibitory activity of 20 nM peptide, percent of that of 20 nM cyclic-(GRGDSP) came to 16.5%.

As to SDESDTNSESANESGSRGDA [C-opened RGD], the inhibitory activity of 20 nM peptide, as the equal concentration of cyclic-(GRGDSP) is 5.27 nM and the inhibitory activity of 20 nM peptide, percent of that of 20 nM cyclic-(GRGDSP) stood at 26.5%.
